From patent publication US20130084292A1 come the findings set out here.

For this assay, the target named is Gp96 receptor (heat shock protein 90 kDa beta (Grp94 or Gp96), member 1 [Homo sapiens]) (Homo sapiens) (UniProt P14625). Description: cell-based or functional assay.
Chain of Gp96 receptor (heat shock protein 90 kDa beta (Grp94 or Gp96), member 1 [Homo sapiens]) (Homo sapiens) (P14625 22-803 limits assumed): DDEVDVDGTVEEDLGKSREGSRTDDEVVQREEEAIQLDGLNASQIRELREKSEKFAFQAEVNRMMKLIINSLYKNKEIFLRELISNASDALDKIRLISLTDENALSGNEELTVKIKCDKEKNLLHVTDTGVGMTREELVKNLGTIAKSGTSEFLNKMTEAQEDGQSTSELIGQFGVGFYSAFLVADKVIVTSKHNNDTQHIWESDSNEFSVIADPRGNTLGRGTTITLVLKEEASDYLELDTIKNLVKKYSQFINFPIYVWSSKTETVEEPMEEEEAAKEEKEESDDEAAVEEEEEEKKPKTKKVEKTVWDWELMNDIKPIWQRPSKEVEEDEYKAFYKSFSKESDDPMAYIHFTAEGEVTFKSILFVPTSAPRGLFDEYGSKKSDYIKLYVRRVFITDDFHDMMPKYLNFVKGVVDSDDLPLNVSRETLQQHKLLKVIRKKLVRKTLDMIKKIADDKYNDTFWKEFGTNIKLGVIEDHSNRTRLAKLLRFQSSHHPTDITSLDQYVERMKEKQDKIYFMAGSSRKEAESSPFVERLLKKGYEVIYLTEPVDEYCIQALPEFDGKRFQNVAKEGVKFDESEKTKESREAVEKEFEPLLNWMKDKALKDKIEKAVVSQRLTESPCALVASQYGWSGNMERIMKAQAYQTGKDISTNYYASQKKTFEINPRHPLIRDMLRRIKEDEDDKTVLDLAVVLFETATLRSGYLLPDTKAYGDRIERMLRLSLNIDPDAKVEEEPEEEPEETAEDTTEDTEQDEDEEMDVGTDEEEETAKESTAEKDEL

For the substance “OmpA outer membrane protein of E. coli AIEC strain LF82 (from UniProt P0A910 22-346) (ligand)”, the invasion level of the LF82-ΔompA mutant on IEC pretreated with LF82 OMVs, relative to strain LF82 taken as 100% worked out at 85.2% and the residual invasion level of the LF82-ΔompA mutant in Intestine-407 cells compared to wild-type strain LF82 taken as 100% stood at 56.3%.
